Literature values, collected in patent US11407822B2, “Treatment of fibrodysplasia ossificans progressiva” (REGENERON PHARMACEUTICALS, INC., priority 2014, dated 2022).

Assays:
[1] = tested on: Activin A mediated signaling through ACVR2A and/or ACVR2B; details: as described for the antibody in US2015/0037339 or U.S. Pat. No. 8,309,082
[2] = molecular target: T1, Activin A binding to ACVR2A or ACVR2B (Homo sapiens, UniProt P08476); details: as described for the antibody in US2015/0037339 or U.S. Pat. No. 8,309,082
T1 sequence (P08476 311-426): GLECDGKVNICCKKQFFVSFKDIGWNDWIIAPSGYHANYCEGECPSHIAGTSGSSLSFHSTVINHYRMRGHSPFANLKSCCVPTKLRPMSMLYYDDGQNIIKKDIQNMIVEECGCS

B1: H4H10430P: Antibody against Activin A designated H4H10430P in US2015037339; heavy and light chain variable regions present SEQ ID NOs:9 and 13 (antibody, V domains shown)
VH: EVQLVESGGGLVQPGRSLRLSCKASGFAFDDFAMHWVRQAPGKGLEWVSGIVWNSGDIGYADSVKGRFTISRDNAKNSLYLQLNSLRTEDTALYFCVKDMVRGLMGFNYYGMDVWGQGTTVTVSS
VL: EIVLTQSPATLSLSPGERATLSCRASQTISTYLVWYRQRPGQAPSLLIYDASNRATDIPARFSGSGSGTDFTLTISSLEPEDFAVYYCQQRSNWPITFGQGTRLEIK
inhibition of Activin A signal transduction through ACVR2A and/or ACVR2B [1]: inhibits signal transduction through one or both of these receptors
inhibition of Activin A binding to ACVR2A and/or ACVR2B [2]: inhibits binding of Activin A to ACVRV2A and/or ACVR2B
